We go through 17 molecules from article PMC12796746, “Profiling the TRPV4 ankyrin repeat domain interactome and its disruption by neuromuscular disease-causing mutations” (The Journal of Biological Chemistry, 2025).

The target in test [1] is T1, TRPV4^WT N-terminal domain (IDR and ARD, amino acids 1-397) (human, UniProt Q9HBA0 1-397).
T1 construct: TRPV4, human, N-terminal domain (IDR and ARD), amino acids 1-397; also called TRPV4^WT N terminus; full N terminus; source: E. coli BL21(DE3), purified; not shown: His6, C-terminal, kept; V5, C-terminal, kept
Description: peptide or protein array; HuProt Human Proteome Microarray v2.0, full-length human proteins spotted in duplicate; V5-tagged TRPV4 protein in solution at 1 μM, 1 h at 4 °C, 150 mM NaCl, 2.7 mM KCl, 25 mM Trizma base, 0.05% Tween-20, pH 7.4; detected with Alexa Fluor 647 anti-V5; hit: z-score >= 2 (N terminus: both of 2 slides; ARD constructs: at least 2 of 3 slides). The note with it: both partners purified.

Test [2] addresses T2, TRPV4^WT-ARD (amino acids 149-397) (human, UniProt Q9HBA0 149-397).
T2 construct: TRPV4, human, ankyrin repeat domain, amino acids 149-397; source: E. coli BL21(DE3), purified; not shown: His6, C-terminal, kept; V5, C-terminal, kept
The test is described as above. As to conditions: both partners purified.

B1: OTUB2 (on the HuProt array) (enzyme, human, UniProt Q96DC9 1-234, looked up)
chain: MSETSFNLISEKCDILSILRDHPENRIYRRKIEELSKRFTAIRKTKGDGNCFYRALGYSYLESLLGKSREIFKFKERVLQTPNDLLAAGFEEHKFRNFFNAFYSVVELVEKDGSVSSLLKVFNDQSASDHIVQFLRLLTSAFIRNRADFFRHFIDEEMDIKDFCTHEVEPMATECDHIQITALSQALSIALQVEYVDEMDTALNHHVFPEAATPSVYLLYKTSHYNILYAADKH
notes: deubiquitinase OTUB2, human, spotted on the HuProt array; source: bought: CDI Laboratories (HuProt v2.0 microarray)
As to B1, in test [1], the binding result is “binds”.

B2: 3-hydroxybutyrate dehydrogenase type 2 (natural protein, human, UniProt Q9BUT1 1-245, looked up)
chain: MGRLDGKVIILTAAAQGIGQAAALAFAREGAKVIATDINESKLQELEKYPGIQTRVLDVTKKKQIDQFANEVERLDVLFNVAGFVHHGTVLDCEEKDWDFSMNLNVRSMYLMIKAFLPKMLAQKSGNIINMSSVASSVKGVVNRCVYSTTKAAVIGLTKSVAADFIQQGIRCNCVCPGTVDTPSLQERIQARGNPEEARNDFLKRQKTGRFATAEEIAMLCVYLASDESAYVTGNPVIIDGGWSL
notes: human, spotted on the HuProt array; also called BDH2; source: bought: CDI Laboratories (HuProt v2.0 microarray)
As to B2, the binding result in test [2] is reported as “binds”.

B3: Myosin light chain 1/3, skeletal muscle isoform (natural protein)
chain: not shown
notes: human, spotted on the HuProt array; also called MYL1; source: bought: CDI Laboratories (HuProt v2.0 microarray)
For the molecule B3, in test [2], the binding result is listed as “binds”.

B4: ADP-ribosylation factor-like protein 10 (natural protein, human, UniProt Q8N8L6 1-244, looked up)
chain: MAPRPLGPLVLALGGAAAVLGSVLFILWKTYFGRGRERRWDRGEAWWGAEAARLPEWDEWDPEDEEDEEPALEELEQREVLVLGLDGAGKSTFLRVLSGKPPLEGHIPTWGFNSVRLPTKDFEVDLLEIGGSQNLRFYWKEFVSEVDVLVFVVDSADRLRLPWARQELHKLLDKDPDLPVVVVANKQDLSEAMSMGELQRELGLQAIDNQREVFLLAASIAPAGPTFEEPGTVHIWKLLLELLS
notes: human, spotted on the HuProt array; also called ARL10; source: bought: CDI Laboratories (HuProt v2.0 microarray)
B4: in test [2], the binding result is recorded as “binds”.

B5: Centrin-3 (natural protein, human, UniProt O15182 1-167, looked up)
chain: MSLALRSELVVDKTKRKKRRELSEEQKQEIKDAFELFDTDKDEAIDYHELKVAMRALGFDVKKADVLKILKDYDREATGKITFEDFNEVVTDWILERDPHEEILKAFKLFDDDDSGKISLRNLRRVARELGENMSDEELRAMIEEFDKDGDGEINQEEFIAIMTGDI
notes: human, spotted on the HuProt array; also called CETN3; source: bought: CDI Laboratories (HuProt v2.0 microarray)
With B5, the binding result in test [2] is “binds”.

B6: Uncharacterized protein C4orf36 (natural protein, human, UniProt Q96KX1 1-117, looked up)
chain: MAYGVPRKNTVKTILRGSCYNVQEPWDIALLAKTWSTNLANIKLPFLEEISFGGSVQLTKCTTIKDGLLPSAESIKLEREYEVKRLCKLKCQENTSKEIQLLLRERPAGLRRPLPSK
notes: human, spotted on the HuProt array; source: bought: CDI Laboratories (HuProt v2.0 microarray)
As for B6, the binding result in test [2] is “binds”.

B7: Protein N-terminal glutamine amidohydrolase (natural protein)
chain: not shown
notes: human, spotted on the HuProt array; also called WDYHV1; source: bought: CDI Laboratories (HuProt v2.0 microarray)
As for B7, the binding result in test [2] was “binds”.

B8: Ras-related protein Rab-7L1 (natural protein, human, UniProt O14966 1-203, looked up)
chain: MGSRDHLFKVLVVGDAAVGKTSLVQRYSQDSFSKHYKSTVGVDFALKVLQWSDYEIVRLQLWDIAGQERFTSMTRLYYRDASACVIMFDVTNATTFSNSQRWKQDLDSKLTLPNGEPVPCLLLANKCDLSPWAVSRDQIDRFSKENGFTGWTETSVKENKNINEAMRVLIEKMMRNSTEDIMSLSTQGDYINLQTKSSSWSCC
notes: human, spotted on the HuProt array; also called RAB29; source: bought: CDI Laboratories (HuProt v2.0 microarray)
As to B8, in test [2], the binding result was “binds”.

B9: Short coiled-coil protein (natural protein, human, UniProt Q9UIL1 1-159, looked up)
chain: MRRRVFSSQDWRASGWDGMGFFSRRTFCGRSGRSCRGQLVQVSRPEVSAGSLLLPAPQAEDHSSRILYPRPKSLLPKMMNADMDAVDAENQVELEEKTRLINQVLELQHTLEDLSARVDAVKEENLKLKSENQVLGQYIENLMSASSVFQTTDTKSKRK
notes: human, spotted on the HuProt array; also called SCOC; source: bought: CDI Laboratories (HuProt v2.0 microarray)
As to B9, the binding result in test [2] was “binds”.

B10: Small proline-rich protein 2B (natural protein, human, UniProt P35325 1-72, looked up)
chain: MSYQQQQCKQPCQPPPVCPTPKCPEPCPPPKCPEPCPPPKCPQPCPPQQCQQKYPPVTPSPPCQPKYPPKSK
notes: human, spotted on the HuProt array; also called SPRR2B; source: bought: CDI Laboratories (HuProt v2.0 microarray)
For the molecule B10, in test [2], the binding result is listed as “binds”.

B11: Polyadenylate-binding protein-interacting protein 2 (natural protein, human, UniProt Q9BPZ3 1-127, looked up)
chain: MKDPSRSSTSPSIINEDVIINGHSHEDDNPFAEYMWMENEEEFNRQIEEELWEEEFIERCFQEMLEEEEEHEWFIPARDLPQTMDQIQDQFNDLVISDGSSLEDLVVKSNLNPNAKEFVPGVKYGNI
notes: human, spotted on the HuProt array; also called PAIP2; source: bought: CDI Laboratories (HuProt v2.0 microarray)
Regarding B11, the binding result in test [2] was “binds”.

B12: Uncharacterized protein C6orf141 (natural protein, human, UniProt Q5SZD1 1-244, looked up)
chain: MNDPFARMETRGPQGAANPMDSSRSLGDLGPFPREVGRGAPLAPGARNPATAGASRSQGGGHEDRTADRALGPRAGEELDRESWVREKVLFLLHPERWLGTRGDPAREEVAGAEDLPHAGGEDHGEEPNYPSVFQRQKRISGRRVAPPRDAADPPKYVLVRVEDYQVTQEVLQTSWAKGRMTTRTEEHFVTALTFRSSREGQPGERWGPAESRALQARTGASRVHAAGRRVSPSPGTWLEEIKL
notes: as for B6
Turning to B12, the binding result in test [2] is “binds”.

B13: Cysteine-rich DPF motif domain-containing protein 1 (natural protein, human, UniProt Q6NVV7 1-123, looked up)
chain: MASHVECRPLGVFECELCTLTAPYSYVGQKPPNTQSMVLLEESYVMKDPFTSDKDRFLVLGSCCSLCSRLVCVGPECSLFYSKRFCLPCVRENINAFPQEIRQDLEKRKAPSKRTPSQPGSRT
notes: human, spotted on the HuProt array; also called CDPF1; source: bought: CDI Laboratories (HuProt v2.0 microarray)
On to B13, for which the binding result in test [2] is “binds”.

B14: Huntingtin-interacting protein K (natural protein, human, UniProt Q9NX55 1-121, looked up)
chain: MATEGDVELELETETSGPERPPEKPRKHDSGAADLERVTDYAEEKEIQSSNLETAMSVIGDRRSREQKAKQEREKELAKVTIKKEDLELIMTEMEISRAAAERSLREHMGNVVEALIALTN
notes: human, spotted on the HuProt array; also called HYPK; source: bought: CDI Laboratories (HuProt v2.0 microarray)
In the case of B14, in test [2], the binding result was “binds”.

B15: Deoxycytidylate deaminase (natural protein, human, UniProt P32321 1-178, looked up)
chain: MSEVSCKKRDDYLEWPEYFMAVAFLSAQRSKDPNSQVGACIVNSENKIVGIGYNGMPNGCSDDVLPWRRTAENKLDTKYPYVCHAELNAIMNKNSTDVKGCSMYVALFPCNECAKLIIQAGIKEVIFMSDKYHDSDEATAARLLFNMAGVTFRKFIPKCSKIVIDFDSINSRPSQKLQ
notes: human, spotted on the HuProt array; also called DCTD; source: bought: CDI Laboratories (HuProt v2.0 microarray)
As for B15, the binding result in test [2] is listed as “binds”.

B16: Protein FAM104B (natural protein, human, UniProt Q5XKR9 1-115, looked up)
chain: MGGCPVRKRRRNGSKEGNHHSTQPKRNKRNPIFQDSQDTEFSWSDNERSSSRINIPERASGPEGNLNQIVTEPDANFPQFLHEGLSKPVYVINWFMSFGPEIKLNTSQQGRNQAV
notes: as for B6
B16: the binding result in test [2] was “binds”.

B17: 14-3-3 protein eta (natural protein, human, UniProt Q04917 1-246, looked up)
chain: MGDREQLLQRARLAEQAERYDDMASAMKAVTELNEPLSNEDRNLLSVAYKNVVGARRSSWRVISSIEQKTMADGNEKKLEKVKAYREKIEKELETVCNDVLSLLDKFLIKNCNDFQYESKVFYLKMKGDYYRYLAEVASGEKKNSVVEASEAAYKEAFEISKEQMQPTHPIRLGLALNFSVFYYEIQNAPEQACLLAKQAFDDAIAELDTLNEDSYKDSTLIMQLLRDNLTLWTSDQQDEEAGEGN
notes: human, spotted on the HuProt array; also called YWHAH; source: bought: CDI Laboratories (HuProt v2.0 microarray)
On to B17, for which the binding result in test [2] is on record as “binds”.
